Results: the supplement of paper PMC7125110
± gives the standard error. Fewer inactive variants are shown than the library holds.

B1: glmS ribozyme (parent)
chain: AUAAAAGCGCCAGAACUACAGAAAUGUAGUUGACGAGGAGGAGGUUUAUCGAAUUUUCGGCGGAUGCCUCCAAA

Assays:
Settings in all cases: with glucosamine-6-phosphate
[1] = variants of: B1; assay: self-cleavage kobs at 40 uM GlcN6P; higher = faster cleavage; RNA array
In short: (§1)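 Glucosamine-6-phosphate, from 40 μM to 10 mM in HEPES/KCl/Mg(OAc)2 buffer, was flowed over sequenced MiSeq chips carrying barcoded ribozyme variants transcribed in situ by E. coli RNA polymerase. A hybridised Cy3 probe tracked the variants at 37 °C as tiles were imaged over ~14 h. kobs, kcat and KM were obtained by fitting normalised per-tile medians to exponential decays and then applying weighted Michaelis–Menten fits across concentrations.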

[2] = variants of: B1; assay: self-cleavage kobs at 160 uM GlcN6P; higher = faster cleavage; RNA array
In short: as §1

[3] = variants of: B1; assay: self-cleavage kobs at 640 uM GlcN6P; higher = faster cleavage; RNA array
In short: as §1

[4] = variants of: B1; assay: self-cleavage kobs at 2500 uM GlcN6P; higher = faster cleavage; RNA array
In short: as §1

[5] = variants of: B1; assay: self-cleavage kobs at 10000 uM GlcN6P; higher = faster cleavage; RNA array
In short: as §1

| Variant | self-cleavage kobs at 40 uM GlcN6P [1] | self-cleavage kobs at 160 uM GlcN6P [2] | self-cleavage kobs at 640 uM GlcN6P [3] | self-cleavage kobs at 2500 uM GlcN6P [4] | self-cleavage kobs at 10000 uM GlcN6P [5] |
| --- | --- | --- | --- | --- | --- |
| C16U C71G | 6.56e-05 ± 7.6e-06 s⁻¹ | 0.00019 ± 2.6e-05 s⁻¹ | 0.000313 ± 4.5e-05 s⁻¹ | 0.000215 ± 3.4e-05 s⁻¹ | 0.000726 ± 0.0001 s⁻¹ |
| A33G G40U G43A U49A C58U | < 1e-05 s⁻¹ | – | – | – | < 1e-05 s⁻¹ |
| C19A G51A | < 1e-05 s⁻¹ | – | – | – | < 1e-05 s⁻¹ |
| A36G A64G U69G | < 1e-05 s⁻¹ | – | – | – | – |
| G41U G43U | < 1e-05 s⁻¹ | – | < 1e-05 s⁻¹ | < 1e-05 s⁻¹ | < 1e-05 s⁻¹ |
| G60C A64G | < 1e-05 s⁻¹ | < 1e-05 s⁻¹ | < 1e-05 s⁻¹ | < 1e-05 s⁻¹ | < 1e-05 s⁻¹ |
| G7U A14U A48G U56C A64U G66U | < 1e-05 s⁻¹ | – | – | – | < 1e-05 s⁻¹ |
| C8U A33U G66C | < 1e-05 s⁻¹ | – | – | – | – |
| U57G C70G | 3.7e-05 ± 9.8e-06 s⁻¹ | 0.00016 ± 3e-05 s⁻¹ | 0.000103 ± 1.5e-05 s⁻¹ | 8.84e-05 ± 1.5e-05 s⁻¹ | 2.33e-05 ± 1e-05 s⁻¹ |
| A15G A39C C61U G63C C68G | < 1e-05 s⁻¹ | – | < 1e-05 s⁻¹ | – | – |
| U47C C61G C71U | < 1e-05 s⁻¹ | – | – | – | < 1e-05 s⁻¹ |
| G7C G51U | < 1e-05 s⁻¹ | < 1e-05 s⁻¹ | < 1e-05 s⁻¹ | < 1e-05 s⁻¹ | < 1e-05 s⁻¹ |
| G13A G63U | < 1e-05 s⁻¹ | < 1e-05 s⁻¹ | < 1e-05 s⁻¹ | < 1e-05 s⁻¹ | < 1e-05 s⁻¹ |
| G32C A36U | < 1e-05 s⁻¹ | < 1e-05 s⁻¹ | < 1e-05 s⁻¹ | < 1e-05 s⁻¹ | – |
| U31A G43C U54G | < 1e-05 s⁻¹ | – | – | – | < 1e-05 s⁻¹ |
| G13C G60A U65G G66C C71U | < 1e-05 s⁻¹ | – | – | – | < 1e-05 s⁻¹ |
| A12C G40A | 0.000112 ± 2.1e-05 s⁻¹ | 0.000305 ± 8e-05 s⁻¹ | 0.000633 ± 0.00023 s⁻¹ | 0.00149 ± 0.00055 s⁻¹ | 0.00569 ± 0.0013 s⁻¹ |
| A42C A52U C61U | < 1e-05 s⁻¹ | – | < 1e-05 s⁻¹ | – | – |
| C58G A64U | < 1e-05 s⁻¹ | – | < 1e-05 s⁻¹ | < 1e-05 s⁻¹ | < 1e-05 s⁻¹ |
| C8A A15G G60A | < 1e-05 s⁻¹ | – | < 1e-05 s⁻¹ | < 1e-05 s⁻¹ | – |
| G7A C8G | < 1e-05 s⁻¹ | < 1e-05 s⁻¹ | < 1e-05 s⁻¹ | < 1e-05 s⁻¹ | < 1e-05 s⁻¹ |
